According to the RNAGym collection of RNA variant scans (doi:10.1073/pnas.2313332121):
This sample holds only a part of the variants without activity.

B1: TPR 5TU (parent)
chain: GGAUCUUCUCGAUCUAACAAAAAAGACAAAUCUGCCACAAAGCUUGAGAGCAUCUUCGGAUGCAGAGGCGGCAGCCUUCGGUGGCGCGAUAGCGCCAACGUUCUCAACUAUGACACGCAAAACGCGUGCUCCGUUGAAUGGAGUUUAUCAUG

Variants of: B1
Assay: polymerase ribozyme fitness, log enrichment relative to wild type (log ratio); higher = more active; in vitro selection for triplet polymerase activity
Summary of the method: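 A heterodimeric triplet polymerase ribozyme had each of its subunits mutagenized by PCR into a library, which was transcribed. One round of in vitro selection, done in triplicate, annealed each library with a biotinylated primer, its partner subunit and triplets, then incubated it frozen at −7 °C before gel excision of extended constructs, streptavidin-bead capture and RT-PCR. Fitness is the logarithm of genotype enrichment relative to wild-type enrichment, based on Illumina sequencing of inputs and outputs and inverse-variance-weighted replicate averages. A base-2 logarithm is used, and genotypes were kept only with ≥10 input reads and ≥1 read per output.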

Variant | polymerase ribozyme fitness (log ratio)
U55A G86A C93A U104C A113U G126A | ≤ -4.2
U55G C72U G136C | -3.74
U55A G58U G84A C103U A120C | -0.0961
U55A C93U | -1.68
U55A G126U | -0.31
U55G G83C | -0.921
U55G G83U | -0.389
U55G G83A | -0.31
U55G C72U | -0.349
U55G C85A | -2.4
U55G C85G | -1.66
U55G C85U | -0.188
U55A G67A U127A | ≤ -4.2
U55G G81A U139C | ≤ -4.2
U55G G92U U139G U146G | -1.4
U55G C114U | -2.17
U56A C79U C118G C132A | -4.05
U55A U109G A137U | -4.19
U55G C87A G141C | -3.74
U55A C87G C149G | ≤ -4.2
U55A U61G G86U | ≤ -4.2
U55A C69U G94C | -3.36
U55G G86A U134A | -3.62
U55G C85G C132U | -2.9

Variant | polymerase ribozyme fitness (log ratio)
U55A G136A | -0.833
U55A U56A G59A | 0.199
U55A G84U A106C U144C U146C | -4.16
U55A U78G G94U C114G | ≤ -4.2
U56A A150C | -3.35
U55A G62C G81A | -3.98
U55A C72U G83A | -0.82
U56A C57G C87A A119G G126A | ≤ -4.2
U55A A119G U139G | 0.219
U55G C87U | -1.42
U56A C57U U82A G84A G92U A106C G143C | ≤ -4.2
U55G C75U | -0.769
U55C C85U A97U | -1.16
U56A C57G A66U G84A A98G C103A C125A | ≤ -4.2
U55G C57G C95U C96A C118G | -2.53
U55A G59A | 1.69
U56A A91G C95U C105G A120G | -3.49
U55A A122G | -0.237
U55A C57U | 0.643
U55A C57A | 0.142
U55A G70A C123G | -3.3
U55G G83A C103U U135A | -2.23
U55A U139G | -0.865
U55G A106C | -0.416

Variant | polymerase ribozyme fitness (log ratio)
U55G C87A C118U U130G | ≤ -4.2
U55G C93U | -1.83
U55G C93G | -4.19
U55A U61A C93U C103A | ≤ -4.2
U55A G80A C85A | -1.39
U55A C57U C85U A91G G141U | -1.7
U55A U61A C79A G83A U90G G143A | ≤ -4.2
U56A C69A G84A | -1.63
U55A G80A | -1.65
U55A U78C C123G | -0.403
U55A U135A | -1.74
U55A G58C | -0.661
U56A A91U C125U C132U G140A U148A | ≤ -4.2
U55G A89G G124C U146C | -1.44
U55G C79G U145A | ≤ -4.2
U55G G81A G141C U146G | -2.62
U55A G92U | -1.03
U56A A64U | -4.19
U56A C75G C93A A98G A106C G141A | ≤ -4.2
U55A G94C U148G | ≤ -4.2
U55A C57U C85G G94C C99G C149G | ≤ -4.2
U55A C76U C93U C95U G143A | -2.72
U55G G81A C118U U135G | -3.84
U56A A142U | -0.643

Variant | polymerase ribozyme fitness (log ratio)
U55A A147C | -1.3
U55A U56A G80U U111A | ≤ -4.2
U55A G59U A60G G94A | -1.02
U55G U82A U148C | -2.51
U55G C57G A97G A106C | -3
U55A G128A | -4.18
U56A A73C G94C | -3.51
U55G U127A | -3.34
U55G U127C | -1.36
U55A C85U A122G A142G U145G | -2.39
U56A C57A C85U C87U | -0.523
U55A G58A A89C A120U U134C | 0.161
U55A U61A | -3.16
U55G G88U A97G U135G U148C | ≤ -4.2
U55A A115U G133U | ≤ -4.2
U55A G84A G86A C93U C105U | -1.1
U55A C63G C76U U78G G92C G136U G141C | ≤ -4.2
U55A U82C | -0.191
U55A U82G | -0.931
U55A C93G G141C | -3.82
U55A C72A A119U | ≤ -4.2
U55C G92C | -0.135
U56A C85G | -2.44
U56A C85A | -2.02

Variant | polymerase ribozyme fitness (log ratio)
U56A C85U | -0.564
U56A C57U G86C A98C G141A G152A | -3.31
U55G C57G U101G | 0.189
U56A A73U C79G G88A | ≤ -4.2
U55A U144C | 0.176
U55A U144G | 0.364
U55A U144A | -0.497
U55A G141A | -0.587
U55A U145C | 0.505
U55G U134C G143U | -1.98
U55A C63G A121U | -0.282
U55G G62A C116G | -1.02
U55A C85A A119U U134A A142C | ≤ -4.2
U55G C79U A91C G124C C129A A137U | ≤ -4.2
U56A A60U C93U G141U | -3.71
U56A C72G | -3.76
U55A U56A | -0.654
U55G G86A U139G | -1.96
U56A C93U G141A | -3.72
U55A C63A | -0.431
U55A G68C A91G A107C | ≤ -4.2
U55A G94U C108A | ≤ -4.2
U55A C76A C114U | -3.91
U56A A115C | -0.798

Variant | polymerase ribozyme fitness (log ratio)
U55G C57U C63G A66U G94C U104G | ≤ -4.2
U55G G84U | -0.827
U56A A60G | 0.416
U55G A137C | -3.36
U56A C95A C103G C132A U146A | ≤ -4.2
U55G A60G C79U A119C | -2.12
U55A A107G | -3.7
U56A A97G | -0.89
U56A A97U | -1.47
U55A C76U A121C | -0.181
U55A G71A U77C C95U A113C C149G | ≤ -4.2
U56A C76A A119U A121C G126U | -1.11
U55A U77A | ≤ -4.2
U55A C108G | ≤ -4.2
U55G C57A C69U U109G C116A | -0.0851
U55A G62A C87U C103U | -1.44
U55A C114A | -3.44
U55A C114U | -2.21
U55A C57U C87G C125A | ≤ -4.2
U55A C87A | ≤ -4.2
U55A C87U | -1.1
U55A C75U | 0.238
U55G G143C | -2.79
U55G G143A | -0.655

Variant | polymerase ribozyme fitness (log ratio)
U55A G86U U145G | -1.41
U56A C85U G128U | -2.89
U55G G84U A98C U151C | ≤ -4.2
U55G C108G G133U A142C | -4.19
U55G A60G C69U A91G U144A | -2.3
U55A U82G C116A A121U A137C | -3.5
U55C U56A A98U U145A | -1.11
U55A G84A | -1.01
U55A G84U | -2.28
U55A U77C C105A A107U U127G A137C | ≤ -4.2
U55A C72U C76U U78C G84A | -2.57
U56A A66C C72U G92A C93U C95A C116A | ≤ -4.2
U55G A73U A122G G126C | -1.69
U55G A73U | -2.35
U55G G65A A97U U130C | -1.27
U55G C85U C131U U134C | 1.73
U55G A98U U144G | 0.317
U55A C69U C93U | -3.95
U55C G58U G124A | -0.624
U56A A66G C95U C99U A120G | ≤ -4.2
U55A U101G | -0.568
U55G G58C G59U G67C U78A C95U A113G | ≤ -4.2
U55A C85A G133C | -3.05
